Reference: the supplement of paper PMC9112550, “Optimization of the antimicrobial peptide Bac7 by deep mutational scanning” (BMC Biology, 2022)

System: Escherichia coli TOP10
Test: shrunken log2 fold change of peptide-encoding DNA abundance (4.5 h post-induction vs induction); higher = less antimicrobial activity (less host growth inhibition)
Settings: time post-induction: 4.5 h; library: site-saturation at positions 5, 18, 19, 20
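Note: peptides expressed intracellularly from a pBAD plasmid library in pooled LB shake-flask culture, induced with 0.3% L-arabinose, DNA abundance read by NGS, three biological replicates, DESeq2 with apeglm shrinkage.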

Sequence | shrunken log2 fold change
RRIRARPPRLPRPRPRPPMQPRP | 0.781
RRIRARPPRLPRPRPRPPMRPRP | 1.26
RRIRARPPRLPRPRPRPPNNPRP | 0.0107
RRIRARPPRLPRPRPRPPPNPRP | 1.35
RRIRARPPRLPRPRPRPPPSPRP | 1.26
RRIRARPPRLPRPRPRPPRNPRP | 0.965
RRIRARPPRLPRPRPRPPSQPRP | 0.669
RRIRARPPRLPRPRPRPPSTPRP | 0.563
RRIRARPPRLPRPRPRPPTEPRP | 1.2
RRIRARPPRLPRPRPRPPTWPRP | 1.67
RRIRARPPRLPRPRPRPPTYPRP | 0.0408
RRIRARPPRLPRPRPRPPVHPRP | 0.516
RRIRARPPRLPRPRPRPPVYPRP | 0.0965
RRIRARPPRLPRPRPRPPWKPRP | 0.429
RRIRARPPRLPRPRPRPQCDPRP | 0.0205
RRIRARPPRLPRPRPRPQCTPRP | -0.0222
RRIRARPPRLPRPRPRPQDEPRP | 0.195
RRIRARPPRLPRPRPRPQHAPRP | 0.269
RRIRARPPRLPRPRPRPQHKPRP | 0.292
RRIRARPPRLPRPRPRPQKFPRP | -0.509
RRIRARPPRLPRPRPRPQKRPRP | 0.172
RRIRARPPRLPRPRPRPQLKPRP | 0.237
RRIRARPPRLPRPRPRPQMFPRP | -0.046
RRIRARPPRLPRPRPRPQNIPRP | -0.56
RRIRARPPRLPRPRPRPQPDPRP | 0.254

Sequence | shrunken log2 fold change
RRIRARPPRLPRPRPRPQPEPRP | 1.04
RRIRARPPRLPRPRPRPQPVPRP | 0.292
RRIRARPPRLPRPRPRPQQQPRP | 0.946
RRIRARPPRLPRPRPRPQRKPRP | 0.365
RRIRARPPRLPRPRPRPQRSPRP | 0.17
RRIRARPPRLPRPRPRPQSFPRP | -0.121
RRIRARPPRLPRPRPRPQSGPRP | -0.0719
RRIRARPPRLPRPRPRPQVGPRP | 0.391
RRIRARPPRLPRPRPRPQVWPRP | 0.275
RRIRARPPRLPRPRPRPQWKPRP | 0.179
RRIRARPPRLPRPRPRPQYIPRP | -0.566
RRIRARPPRLPRPRPRPQYMPRP | -0.112
RRIRARPPRLPRPRPRPRADPRP | 0.924
RRIRARPPRLPRPRPRPRCGPRP | 0.609
RRIRARPPRLPRPRPRPRCIPRP | 0.459
RRIRARPPRLPRPRPRPRCKPRP | 0.51
RRIRARPPRLPRPRPRPRDLPRP | -0.162
RRIRARPPRLPRPRPRPRETPRP | 0.52
RRIRARPPRLPRPRPRPRFAPRP | 0.513
RRIRARPPRLPRPRPRPRHPPRP | 0.383
RRIRARPPRLPRPRPRPRIAPRP | 0.631
RRIRARPPRLPRPRPRPRIIPRP | 0.093
RRIRARPPRLPRPRPRPRKDPRP | 0.173
RRIRARPPRLPRPRPRPRLCPRP | 0.574
RRIRARPPRLPRPRPRPRLFPRP | 0.465

Sequence | shrunken log2 fold change
RRIRARPPRLPRPRPRPRLQPRP | 0.637
RRIRARPPRLPRPRPRPRMHPRP | 0.324
RRIRARPPRLPRPRPRPRMRPRP | 0.954
RRIRARPPRLPRPRPRPRNRPRP | 0.0657
RRIRARPPRLPRPRPRPRPNPRP | 0.493
RRIRARPPRLPRPRPRPRQFPRP | 0.32
RRIRARPPRLPRPRPRPRQPPRP | 0.75
RRIRARPPRLPRPRPRPRQRPRP | 1.13
RRIRARPPRLPRPRPRPRQYPRP | -0.294
RRIRARPPRLPRPRPRPRRYPRP | 0.255
RRIRARPPRLPRPRPRPRSHPRP | 0.223
RRIRARPPRLPRPRPRPRTFPRP | 0.287
RRIRARPPRLPRPRPRPRTHPRP | 0.259
RRIRARPPRLPRPRPRPRTQPRP | 0.634
RRIRARPPRLPRPRPRPRVMPRP | 0.197
RRIRARPPRLPRPRPRPRVWPRP | 0.827
RRIRARPPRLPRPRPRPRWIPRP | 0.239
RRIRARPPRLPRPRPRPRWRPRP | 0.934
RRIRARPPRLPRPRPRPSATPRP | 1.26
RRIRARPPRLPRPRPRPSCQPRP | 0.133
RRIRARPPRLPRPRPRPSDMPRP | 0.16
RRIRARPPRLPRPRPRPSEFPRP | 0.00109
RRIRARPPRLPRPRPRPSEKPRP | -0.312
RRIRARPPRLPRPRPRPSFTPRP | 0.582
RRIRARPPRLPRPRPRPSGCPRP | 0.0438

Sequence | shrunken log2 fold change
RRIRARPPRLPRPRPRPSGKPRP | -0.0838
RRIRARPPRLPRPRPRPSGMPRP | 0.197
RRIRARPPRLPRPRPRPSGNPRP | 0.0499
RRIRARPPRLPRPRPRPSHYPRP | -0.0225
RRIRARPPRLPRPRPRPSIEPRP | 0.0128
RRIRARPPRLPRPRPRPSITPRP | 0.107
RRIRARPPRLPRPRPRPSKRPRP | 0.0155
RRIRARPPRLPRPRPRPSLIPRP | -0.0273
RRIRARPPRLPRPRPRPSLKPRP | -0.0764
RRIRARPPRLPRPRPRPSLRPRP | 0.109
RRIRARPPRLPRPRPRPSLTPRP | 0.172
RRIRARPPRLPRPRPRPSNTPRP | -0.31
RRIRARPPRLPRPRPRPSRAPRP | 0.555
RRIRARPPRLPRPRPRPSRGPRP | 0.497
RRIRARPPRLPRPRPRPSRHPRP | -0.00582
RRIRARPPRLPRPRPRPSRMPRP | 0.362
RRIRARPPRLPRPRPRPSRNPRP | -0.0178
RRIRARPPRLPRPRPRPSRTPRP | 0.471
RRIRARPPRLPRPRPRPSRYPRP | 0.0768
RRIRARPPRLPRPRPRPSSAPRP | 1.29
RRIRARPPRLPRPRPRPSSTPRP | -0.0285
RRIRARPPRLPRPRPRPSVEPRP | 0.49
RRIRARPPRLPRPRPRPSWTPRP | -0.392
RRIRARPPRLPRPRPRPSYLPRP | -0.716
RRIRARPPRLPRPRPRPSYRPRP | -0.228

Sequence | shrunken log2 fold change
RRIRARPPRLPRPRPRPSYSPRP | -0.349
RRIRARPPRLPRPRPRPTAQPRP | 0.936
RRIRARPPRLPRPRPRPTCAPRP | 0.863
RRIRARPPRLPRPRPRPTCLPRP | 0.0548
RRIRARPPRLPRPRPRPTCMPRP | 0.407
RRIRARPPRLPRPRPRPTDKPRP | 0.391
RRIRARPPRLPRPRPRPTDLPRP | 0.274
RRIRARPPRLPRPRPRPTEYPRP | -0.103
RRIRARPPRLPRPRPRPTFWPRP | 0.445
RRIRARPPRLPRPRPRPTIRPRP | 0.109
RRIRARPPRLPRPRPRPTISPRP | 0.0389
RRIRARPPRLPRPRPRPTKEPRP | 0.0091
RRIRARPPRLPRPRPRPTNLPRP | 0.0653
RRIRARPPRLPRPRPRPTNMPRP | -0.275
RRIRARPPRLPRPRPRPTPIPRP | 0.747
RRIRARPPRLPRPRPRPTPSPRP | 0.791
RRIRARPPRLPRPRPRPTPVPRP | 0.696
RRIRARPPRLPRPRPRPTRCPRP | 1.1
RRIRARPPRLPRPRPRPTRDPRP | 0.759
RRIRARPPRLPRPRPRPTRQPRP | 0.982
RRIRARPPRLPRPRPRPTRWPRP | 0.539
RRIRARPPRLPRPRPRPTSLPRP | 0.225
RRIRARPPRLPRPRPRPTTRPRP | 0.61
RRIRARPPRLPRPRPRPTTTPRP | 0.264
RRIRARPPRLPRPRPRPTVFPRP | 0.0832

Sequence | shrunken log2 fold change
RRIRARPPRLPRPRPRPTVNPRP | -0.0152
RRIRARPPRLPRPRPRPTWIPRP | 0.291
RRIRARPPRLPRPRPRPTWQPRP | 0.4
RRIRARPPRLPRPRPRPTWVPRP | 0.225
RRIRARPPRLPRPRPRPTYDPRP | -0.0892
RRIRARPPRLPRPRPRPVAKPRP | 0.577
RRIRARPPRLPRPRPRPVAVPRP | 0.445
RRIRARPPRLPRPRPRPVCMPRP | 0.226
RRIRARPPRLPRPRPRPVCNPRP | 0.0721
RRIRARPPRLPRPRPRPVDYPRP | 0.197
RRIRARPPRLPRPRPRPVEQPRP | 0.446
RRIRARPPRLPRPRPRPVGMPRP | 0.376
RRIRARPPRLPRPRPRPVGRPRP | 0.691
RRIRARPPRLPRPRPRPVHEPRP | 0.00256
RRIRARPPRLPRPRPRPVHLPRP | 0.215
RRIRARPPRLPRPRPRPVIAPRP | 0.161
RRIRARPPRLPRPRPRPVIGPRP | 0.535
RRIRARPPRLPRPRPRPVISPRP | 0.0798
RRIRARPPRLPRPRPRPVKVPRP | 0.0388
RRIRARPPRLPRPRPRPVLTPRP | 0.384
RRIRARPPRLPRPRPRPVMSPRP | 0.0513
RRIRARPPRLPRPRPRPVPMPRP | 0.404
RRIRARPPRLPRPRPRPVQNPRP | 0.814
RRIRARPPRLPRPRPRPVRSPRP | 0.345
RRIRARPPRLPRPRPRPVRTPRP | 1.06
